“And” between values parts separate entries of the source, which are not always exact repeats. Identical values can stand only once.
B1: IgG1-PD1 (antibody)
heavy: QVQLVESGGGLVQPGTSLRLSCSVSGFSLYSYNMGWVRQAPGKGLEYIGIISGGTIGHYASWAKGRFTISRDTSKTTLYLQMNSLTTEDTATYFCARAFYDDYDYNVWGPGTLVTVSSASTKGPSVFPLAPSSKSTSGGTAALGCLVKDYFPEPVTVSWNSGALTSGVHTFPAVLQSSGLYSLSSVVTVPSSSLGTQTYICNVNHKPSNTKVDKRVEPKSCDKTHTCPPCPAPEFERGPSVFLFPPKPKDTLMISRTPEVTCVVVDVSHEDPEVKFNWYVDGVEVHNAKTKPREEQYNSTYRVVSVLTVLHQDWLNGKEYKCKVSNKALPAPIEKTISKAKGQPREPQVYTLPPSREEMTKNQVSLTCLVKGFYPSDIAVEWESNGQPENNYKTTPPVLDSDGSFFLYSKLTVDKSRWQQGNVFSCSVMHEALHNHYTQKSLSLSPG
light: AIQLTQSPSSLSASVGGTVTITCQSSQSVYGNNQLSWYQQKPGQPPKLLIYQASKLETGVPSRFRGSGSGTQFTLTISSLQSEDFATYYCAGGYSSSSDTTFGGGTEVVVKRTVAAPSVFIFPPSDEQLKSGTASVVCLLNNFYPREAKVQWKVDNALQSGNSQESVTEQDSKDSTYSLSSTLTLSKADYEKHKVYACEVTHQGLSSPVTKSFNRGEC
notes: also called IgG1-PDI; copies: 2 + 2
B2: biotinylated recombinant human PD-L2 (ligand, UniProt Q9BQ51 20-219, looked up)
chain: LFTVTVPKELYIIEHGSNVTLECNFDTGSHVNLGAITASLQKVENDTSPHRERATLLEEQLPLGKASFHIPQVQVRDEGQYQCIIIYGVAWDYKYLTLKVKASYRKINTHILKVPETDEVELTCQATGYPLAEVSWPNVSVPANTSHSRTPEGLYQVTSVLRLKPPPGRNFSCVFWNTHVRELTLASIDLQSQMEPRTHP
modifications: biotinylated
notes: Bought reagent; also called programmed cell death 1 ligand 2

Assays:
[1] = target: T1, human PD-1, full-length, expressed on cells (human, UniProt Q15116 25-288); assay: competition flow cytometry: antibody titrated against 1 µg/mL biotinylated recombinant human PD-L2 on CHO-S cells transiently transfected with human PD-1; streptavidin-allophycocyanin; % of cells binding PD-L2
T1 construct: whole, on cells; also called programmed cell death protein 1; membrane-expressed human PD-1
T1 sequence (Q15116 25-288): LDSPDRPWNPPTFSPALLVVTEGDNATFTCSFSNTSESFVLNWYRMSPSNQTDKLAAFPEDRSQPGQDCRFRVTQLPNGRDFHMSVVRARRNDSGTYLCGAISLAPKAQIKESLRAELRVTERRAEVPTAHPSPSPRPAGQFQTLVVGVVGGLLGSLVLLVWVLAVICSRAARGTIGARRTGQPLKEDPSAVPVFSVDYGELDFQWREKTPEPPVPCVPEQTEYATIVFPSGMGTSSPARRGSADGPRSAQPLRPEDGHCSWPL

[2] = target: T1, human PD-1, full-length, expressed on …; assay: cell-based or functional assay
[3] = target: T1, human PD-1, full-length, expressed on …; assay: cell-based or functional assay; remark: listed apart in the source
[4] = target: complement protein C1q (from human serum) (human, UniProt P02745 23-245; P02746 28-253; P02747 29-245); assay: flow cytometry: C1q from human serum on activated human CD8+ T cells pre-incubated with antibody, FITC anti-C1q
Sequence of complement protein C1q (from human serum) (P02745 23-245, chain 1 of 3): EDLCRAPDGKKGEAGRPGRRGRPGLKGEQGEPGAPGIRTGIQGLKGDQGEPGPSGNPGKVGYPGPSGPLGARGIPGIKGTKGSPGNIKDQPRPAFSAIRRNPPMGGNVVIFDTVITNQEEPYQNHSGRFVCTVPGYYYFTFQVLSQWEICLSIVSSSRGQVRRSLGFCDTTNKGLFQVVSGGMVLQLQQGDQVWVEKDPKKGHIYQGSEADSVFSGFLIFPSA
Sequence of complement protein C1q (from human serum) (P02746 28-253, chain 2 of 3): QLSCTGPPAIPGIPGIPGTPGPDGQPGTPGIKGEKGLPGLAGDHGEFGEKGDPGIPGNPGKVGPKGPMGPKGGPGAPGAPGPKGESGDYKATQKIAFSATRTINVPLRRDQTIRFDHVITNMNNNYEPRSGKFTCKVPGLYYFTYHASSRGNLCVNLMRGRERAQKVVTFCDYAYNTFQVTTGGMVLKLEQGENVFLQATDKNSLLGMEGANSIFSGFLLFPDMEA
Sequence of complement protein C1q (from human serum) (P02747 29-245, chain 3 of 3): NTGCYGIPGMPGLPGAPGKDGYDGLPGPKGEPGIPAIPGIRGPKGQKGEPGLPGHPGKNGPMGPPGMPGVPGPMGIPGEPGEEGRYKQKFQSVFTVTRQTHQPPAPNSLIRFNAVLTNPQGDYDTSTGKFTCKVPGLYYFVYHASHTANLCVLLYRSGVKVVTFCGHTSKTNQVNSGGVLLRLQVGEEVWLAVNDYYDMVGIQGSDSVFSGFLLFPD

[5] = target: T1, human PD-1, full-length, expressed on …; assay: flow cytometry: 1 µg/mL biotinylated recombinant human PD-L2 on CHO-S cells transiently transfected with human PD-1; streptavidin-allophycocyanin; % of cells binding PD-L2

Binder | IC50 (read off the curve) [1] | Average EC50, CD8+ T-cell expansion index in the antigen-specific proliferation assay [2] | EC50 of PD-1/PD-L1 checkpoint blockade (luminescence, cell-based PD-1/PD-L1 blockade reporter assay) [3] | binding result [4] | binding result [5]
B1 | ~0.9 µg/mL | 0.0124 µg/mL and 0.0837 nM | 0.165 µg/mL and 1.12 nM | no binding (tested: antibody up to 30 µg/mL; 20% human serum) | –
B2 | – | – | – | – | binds
